Source: patent US20220041746A1 (Sanofi, published 2022)
Values joined by “and” are separate entries in the source; they are usually repeats but may differ in a detail not shown here. Equal values may be shown once. Read-outs that look alike come from different tables or passages of the source. Blank lines part the entries; values can stand above or below the binder they belong to.

How the values were obtained:
[1] = target: T1, human CD38 expressed on the cell surface (human, UniProt P28907 1-300); assay: flow cytometry on preB::300.19 cells, apparent KD
T1 construct: whole, on cells; also called hCD38-expressing cells; huCD38
Method: (§1) The recombinant cell line was described by J. Deckket et al. 2014 Clin Cancer Res 20:4574-4583. […] Antibody binding was evaluated after centrifugation and resuspension of cells by adding 200 μL/well PBS 1% BSA and read using Guava® easvCyte™ 8HT Flow Cytometry System. Apparent KD and EC50 values were estimated using BIOST@T-BINDING and BIOST@T-SPEED software, respectively.

[2] = target: T2, cynomolgus monkey CD38 expressed on the cell surface (cynomolgus monkey, UniProt Q5VAN0 1-301); assay: flow cytometry on preB::300.19 cells, apparent KD
T2 construct: whole, on cells; also called cCD38-expressing cells
Method: as §1

[3] = target: T3, CD38 isoform E (SEQ ID NO:105) (human, UniProt P28907 45-195, limits assumed); assay: ELISA, plate coated with the CD38 isoform
T3 construct: also called huCD38 isoform E
Method: (§2) 96-well plates were coated with either isoform at 0.5 μg/well in PBS and 100 μL/well of antibodies were added to the plate. The plate was incubated at 37° C. for 1 h and washed five times with PBS containing 0.05% Tween-20 (PBS-T). […] Following incubation at 37° C. for 1 h in darkness, plates were washed with PBS-T five times. Antibody binding w as visualized by adding TMB-H2O2 buffer and read at a wavelength of 450 nm. EC50 values were estimated using BIOST@T-SPEED software.

[4] = target: T4, CD38 isoform A (SEQ ID NO:1) (human, UniProt P28907 45-300); assay: ELISA, plate coated with the CD38 isoform
T4 construct: also called huCD38 isoform A
Method: as §2

[5] = target: T1, human CD38 expressed on the cell surface; assay: flow cytometry on preB::300.19 cells, apparent KD; remark: listed apart in the source
Method: as §1

[6] = target: T2, cynomolgus monkey CD38 expressed on the …; assay: flow cytometry on preB::300.19 cells, apparent KD; remark: listed apart in the source
Method: as §1

cCD38-his (SEQ ID NO: 4) [7] = target: T5, cCD38-his (SEQ ID NO: 4) (cynomolgus monkey, UniProt Q5VAN0 46-301); assay: SPR, mAb captured via anti-human Fc, soluble CD38-his injected
T5 construct: His-tagged soluble protein; also called cyno CD38-histag; cynoCD38::Histag
Method: (§3) The binding properties of the anti-huCD38 mabs were evaluated using a BIAcore 2000 (BIAcore Inc., Uppsala, Ni). […] The surface was regenerated between injections using 30 μL of 50 mM NaOH-1 M NaCl. Individual sensorgrams wore analyzed using BIAsimulation software.

hCD38-his (SEQ ID NO: 2) [8] = target: T6, hCD38-his (SEQ ID NO: 2) (human, UniProt P28907 45-300); assay: as above
T6 construct: His-tagged soluble protein derived from isoform A; also called human CD38-histag; hCD38::Histag
Method: as §3

[9] = target: T2, cynomolgus monkey CD38 expressed on the …; assay: flow cytometry on PreB cynoCD38-expressing cells
cCD38-his (SEQ ID NO: 4) [10] = target: T5, cCD38-his (SEQ ID NO: 4); assay: SPR, mAb captured via anti-human Fc, soluble CD38-his injected; remark: listed apart in the source
Method: as §3

hCD38-his (SEQ ID NO: 2) [11] = target: T6, hCD38-his (SEQ ID NO: 2); assay: as above; remark: listed apart in the source
Method: as §3

[12] = target: T1, human CD38 expressed on the cell surface; assay: flow cytometry on SU-DHL-8 cells (SUDHL8)
[13] = target: T1, human CD38 expressed on the cell surface; assay: flow cytometry on MOLP-8 multiple myeloma cells [Cont.]
[14] = target: T7, recombinant human CD38 (SPR of Example 4) (human, UniProt P28907 45-300, limits assumed); assay: SPR; KD rounded to an integer; first value of the pair, taken for CD3mid
[15] = target: human CD28 (SPR of Example 4) (human, UniProt P10747 19-152, limits assumed); assay: as above
[16] = target: T7, recombinant human CD38 (SPR of Example …); assay: SPR (column 'KD value against rec. protein by SPR (nM)'); first value of the pair, taken for CD3mid
[17] = target: T1, human CD38 expressed on the cell surface; assay: flow cytometry on PréB hCD38 cells
Method: as §1, with “Clin.” for “Clin”, “μl/well” for “μL/well”, “easyCyte™” for “easvCyte™”, “BIOST®T-BINDING” for “BIOST@T-BINDING”, “BIOST®T-SPEED” for “BIOST@T-SPEED”

[18] = target: T1, human CD38 expressed on the cell surface; assay: flow cytometry, 'Apparent KD value against rec. cells by FACS (nM)'; single value of the mid/low row, equal to the EC50 of the CD3mid protein in FIG. 6C
Method: as §1, with “Clin.” for “Clin”, “μl/well” for “μL/well”, “easyCyte™” for “easvCyte™”, “BIOST®T-BINDING” for “BIOST@T-BINDING”, “BIOST®T-SPEED” for “BIOST@T-SPEED”

[19] = target: T2, cynomolgus monkey CD38 expressed on the …; assay: flow cytometry on PréB cCD38 cells
Method: as §1, with “Clin.” for “Clin”, “μl/well” for “μL/well”, “easyCyte™” for “easvCyte™”, “BIOST®T-BINDING” for “BIOST@T-BINDING”, “BIOST®T-SPEED” for “BIOST@T-SPEED”

[20] = target: T1, human CD38 expressed on the cell surface; assay: flow cytometry on preB::300.19 cells
[21] = target: T2, cynomolgus monkey CD38 expressed on the …; assay: flow cytometry on preB::300.19 cells
[22] = target: T1, human CD38 expressed on the cell surface; assay: flow cytometry on preB::300.19 cells, apparent KD; remark: listed apart in the source
Method: as §1, with “Clin.” for “Clin”, “μl/well” for “μL/well”, “easyCyte™” for “easvCyte™”, “BIOST®T-BINDING” for “BIOST@T-BINDING”, “BIOST®T-SPEED” for “BIOST@T-SPEED”

[23] = target: T1, human CD38 expressed on the cell surface; assay: flow cytometry on 300.19 huCD38 cells (PréB hCD38)
Method: as §1, with “Clin.” for “Clin”, “μl/well” for “μL/well”, “easyCyte™” for “easvCyte™”, “BIOST®T-BINDING” for “BIOST@T-BINDING”, “BIOST®T-SPEED” for “BIOST@T-SPEED”

[24] = target: T7, recombinant human CD38 (SPR of Example …); assay: SPR, target binding with the other two targets in saturation
Method: (§4) Surface regenerate was conducted by injecting 10 mM Glycine-HCl pH 2.5 for 60 sec at 30 μl/min. […] Equilibrium dissociation constant (KD) was calculated using association rate constant (kₒₙ) and dissociation rate constant (koff).
(§5) Next, each antigen binding domain of the CD38SB19×CD28ₛᵤₚ×CD3mid specific binding protein was evaluated by SPR for the ability to bind cognate antigen with and without the other two antigen binding domains in saturation.

[25] = target: T7, recombinant human CD38 (SPR of Example …); assay: SPR, target binding without other targets present
Method: as §4, §5

[26] = target: T2, cynomolgus monkey CD38 expressed on the …; assay: flow cytometry on 300.19 cynoCD38 cells (PréB cCD38)
Method: as §1, with “Clin.” for “Clin”, “μl/well” for “μL/well”, “easyCyte™” for “easvCyte™”, “BIOST®T-BINDING” for “BIOST@T-BINDING”, “BIOST®T-SPEED” for “BIOST@T-SPEED”

[27] = target: T7, recombinant human CD38 (SPR of Example …); assay: SPR

- Kd [1]: 280 pM
- Kd [2]: 220 pM
- EC50 [3]: 80 pM
- EC50 [4]: 110 pM
- Kd [5]: 280 pM
- Kd [6]: 220 pM
- Kd (cCD38-his (SEQ ID NO: 4) [7]): 390 pM
- koff (cCD38-his (SEQ ID NO: 4) [7]): 9.85e-05 s⁻¹
- Kd (hCD38-his (SEQ ID NO: 2) [8]): 336 pM
- koff (hCD38-his (SEQ ID NO: 2) [8]): 0.000266 s⁻¹
- EC50 [9]: 0.033 µg/mL and 0.15 nM
- Kd (cCD38-his (SEQ ID NO: 4) [10]): 390 pM
- koff (cCD38-his (SEQ ID NO: 4) [10]): 9.85e-05 s⁻¹
- Kd (hCD38-his (SEQ ID NO: 2) [11]): 336 pM
- koff (hCD38-his (SEQ ID NO: 2) [11]): 0.000266 s⁻¹
- EC50 [12]: 0.24 nM and 0.0366 µg/mL
- EC50 [13]: 0.98 nM and 0.148 µg/mL
B1: mAb1 (antibody, human IgG1, kappa, V domains shown)
VH: QVQLQQSGAELVRSGASVKMSCKASGYTFTSFNMHWVKETPGQGLEWIGYIYPGNGGTNYNQKFKGKATLTADTSSSTAYMQISSLTSEDSAVYFCARTGGLRRAYFTYWGQGTLVTVSS
VL: DIVLTQSPASLAVSLGQRATISCRASESVDSYGNGFMHWYQQKPGQPPKLLIYLASNLESGVPARFSGSGSRTDFTLTIDPVEADDAATYYCQQNKEDPWTFGGGTKLEIKR
notes: also called antiCD38_C2-CD38-1

- Kd [14]: 4000 pM
- Kd [15]: 18000 pM
- Kd [16]: 4000 pM
- EC50 [17]: 4.4 nM and 0.663 µg/mL
- Kd [18]: 4400 pM
- EC50 [19]: 7.5 nM and 1.12 µg/mL
- fold lower apparent affinity than the parental mAb2 antibody [20]: 9 fold
- fold lower apparent affinity than the parental mAb2 antibody [21]: 7.5 fold
B2: CD38VH1×CD28cvn×CD3mid IgG4 (other)
VH 1: QVQLVQSGAEVVKPGASVKVSCKASGYTFTSYAMHWVKEAPGQRLEWIGYIYPGQGGTNYNQKFQGRATLTADTSASTAYMELSSLRSEDTAVYFCARTGGLRRAYFTYWGQGTLVTVSS
VL 1: DIVLTQSPATLSLSPGERATISCRASQSVSSYGQGFMHWYQQKPGQPPRLLIYGASSRATGIPARFSGSGSGTDFTLTISPLEPEDFAVYYCQQNKEDPWTFGGGTKLEIK
VH 2: QVQLQESGPGLVKPSQTLSLTCTVSGFSLSDYGVHWVRQPPGKGLEWLGVIWAGGGTNYNPSLKSRKTISKDTSKNQVSLKLSSVTAADTAVYYCARDKGYSYYYSMDYWGQGTTVTVSS
VL 2: DIVLTQSPASLAVSPGQRATITCRASESVEYYVTSLMQWYQQKPGQPPKLLIFAASNVESGVPARFSGSGSGTDFTLTINPVEANDVANYYCQQSRKVPYTFGQGTKLEIK
VH 3: QVQLVESGGGVVQPGRSLRLSCAASGFTFTKAWMHWVRQAPGKQLEWVAQIKDKSNSYATYYADSVKGRFTISRDDSKNTLYLQMNSLRAEDTAVYYCRGVYYALSPFDYWGQGTLVTVSS
VL 3: DIVMTQTPLSLSVTPGQPASISCKSSQSLVHNNANTYLSWYLQKPGQSPQSLIYKVSNRFSGVPDRFSGSGSGTDFTLKISRVEAEDVGVYYCGQGTQYPFTFGSGTKVEIK
notes: also called CD38VH1×CD28evn×CD3mid; CD38VH1 × CD28cyn × CD3mid IgG4

- Kd [22]: 4000 pM
- EC50 [23]: 4 nM and 0.603 µg/mL
- Kd [24]: 2420 pM
- Kd [25]: 1750 pM
B3: CD38SB19×CD28sup×CD3mid trispecific binding protein (other)
VH 1: QVQLVQSGAEVAKPGTSVKLSCKASGYTFTDYWMQWVKQRPGQGLEWIGTIYPGDGDTGYAQKFQGKATLTADKSSKTVYMHLSSLASEDSAVYYCARGDYYGSNSLDYWGQGTSVTVSS
VL 1: DIVMTQSHLSMSTSLGDPVSITCKASQDVSTVVAWYQQKPGQSPRRLIYSASYRYIGVPDRFTGSGAGTDFTFTISSVQAEDLAVYYCQQHYSPPYTFGGGTKLEIK
VH 2: QVQLVQSGAEVVKPGASVKVSCKASGYTFTSYYIHWVRQAPGQGLEWIGSIYPGNVNTNYAQKFQGRATLTVDTSISTAYMELSRLRSDDTAVYYCTRSHYGLDWNFDVWGKGTTVTVSS
VL 2: DIQMTQSPSSLSASVGDRVTITCQASQNIYVWLNWYQQKPGKAPKLLIYKASNLHTGVPSRFSGSGSGTDFTLTISSLQPEDIATYYCQQGQTYPYTFGQGTKLEIK
VH 3: B2 VH 3
VL 3: B2 VL 3

- binding result [26]: binds
- Kd [27]: 1000 pM
B4: CD38HHY1370×CD28sup×CD3mid (other)
VH 1: QVQLVESGGGVVQPGRSLRLSCAASGFTFSSYGMHWVRQAPGKGLEWVAVIWYDGSNKYYADSVKGRFTISGDNSKNTLYLQMNSLRAEDTAVYYCARMFRGAFDYWGQGTLVTVSS
VL 1: AIQMTQSPSSLSASVGDRVTITCRASQGIRNDLGWYQQKPGKAPKLLIYAASSLQSGVPSRFSGSGSGTDFTLTISGLQPEDSATYYCLQDYIYYPTFGQGTKVEIK
VH 2: B3 VH 2
VL 2: B3 VL 2
VH 3: B2 VH 3
VL 3: B2 VL 3
